From the Human Domainome abundance scans (Beltran et al. 2025)
± gives the uncertainty stated by the source.

B1: Protein maelstrom homolog, residues 3 to 71; numbered along this chain, Q96JY0 (parent)
chain: NRKASRNAYYFFVQEKIPELRRRGLPVARVADAIPYCSSDWALLREEEKEKYAEMAREWRAAQGKDPGP

Variants of: B1
Assay: abundance fitness (aPCA) (normalised: wild type 0, dead -1); higher = more abundant; growth selection in yeast, the domain comes from the species named
Conditions: Homo sapiens

Q: With NRKASRNAYYFFVQEKIPELRCRGLPVARVADAIPYCSSDWALLREEEKEKYAEMAREWRAAQGKDPGP [R22C] as the variant, how does the abundance fitness read?
A: -0.791 ± 0.22

Q: For NRKASRNAYYFFVQEKIPELRSRGLPVARVADAIPYCSSDWALLREEEKEKYAEMAREWRAAQGKDPGP [R22S], which abundance fitness is on record?
A: -0.046 ± 0.058

Q: Which abundance fitness does the source give for NRKASRNAYYFFVQEKIPELRWRGLPVARVADAIPYCSSDWALLREEEKEKYAEMAREWRAAQGKDPGP [R22W] here?
A: -0.557 ± 0.09

Q: For NRKASRNAYYFFVQEKIPELRARGLPVARVADAIPYCSSDWALLREEEKEKYAEMAREWRAAQGKDPGP [R22A], which abundance fitness is on record?
A: 0.006 ± 0.063

Q: With NRKASRNAYYFFVQEKIPELRNRGLPVARVADAIPYCSSDWALLREEEKEKYAEMAREWRAAQGKDPGP [R22N] as the variant, how does the abundance fitness read?
A: -0.154 ± 0.12

Q: With NRKASRNAYYFFVQEKIPELRGRGLPVARVADAIPYCSSDWALLREEEKEKYAEMAREWRAAQGKDPGP [R22G] as the variant, how does the abundance fitness read?
A: -0.14 ± 0.073

Q: Which abundance fitness does the source give for NRKASRNAYYFFVQEKIPELRPRGLPVARVADAIPYCSSDWALLREEEKEKYAEMAREWRAAQGKDPGP [R22P] here?
A: -0.763 ± 0.13

Q: With NRKASRNAYYFFVQEKIPELRVRGLPVARVADAIPYCSSDWALLREEEKEKYAEMAREWRAAQGKDPGP [R22V] as the variant, how does the abundance fitness read?
A: -0.738 ± 0.12

Q: For NRKASRNAYYFFVQEKIPELRIRGLPVARVADAIPYCSSDWALLREEEKEKYAEMAREWRAAQGKDPGP [R22I], which abundance fitness is on record?
A: -0.732 ± 0.23

Q: With NRKASRNAYYFFVQEKIPELRDRGLPVARVADAIPYCSSDWALLREEEKEKYAEMAREWRAAQGKDPGP [R22D] as the variant, how does the abundance fitness read?
A: -0.079 ± 0.12

Q: Which abundance fitness does the source give for NRKASRNAYYFFVQEKIPELRMRGLPVARVADAIPYCSSDWALLREEEKEKYAEMAREWRAAQGKDPGP [R22M] here?
A: -0.261 ± 0.085

Q: Which abundance fitness does the source give for NRKASRNAYYFFVQEKIPELRKRGLPVARVADAIPYCSSDWALLREEEKEKYAEMAREWRAAQGKDPGP [R22K] here?
A: 0.162 ± 0.1

Q: For NRKASRNAYYFFVQEKIPELRHRGLPVARVADAIPYCSSDWALLREEEKEKYAEMAREWRAAQGKDPGP [R22H], which abundance fitness is on record?
A: -0.036 ± 0.15

Q: For NRKASRNAYYFFVQEKIPKLRRRGLPVARVADAIPYCSSDWALLREEEKEKYAEMAREWRAAQGKDPGP [E19K], which abundance fitness is on record?
A: -0.686 ± 0.11

Q: For NRKASRNAYYFFVQEKIPSLRRRGLPVARVADAIPYCSSDWALLREEEKEKYAEMAREWRAAQGKDPGP [E19S], which abundance fitness is on record?
A: -0.204 ± 0.053

Q: With NRKASRNAYYFFVQEKIPDLRRRGLPVARVADAIPYCSSDWALLREEEKEKYAEMAREWRAAQGKDPGP [E19D] as the variant, how does the abundance fitness read?
A: -0.093 ± 0.15

Q: With NRKASRNAYYFFVQEKIPNLRRRGLPVARVADAIPYCSSDWALLREEEKEKYAEMAREWRAAQGKDPGP [E19N] as the variant, how does the abundance fitness read?
A: -0.966 ± 0.47

Q: For NRKASRNAYYFFVQEKIPRLRRRGLPVARVADAIPYCSSDWALLREEEKEKYAEMAREWRAAQGKDPGP [E19R], which abundance fitness is on record?
A: -0.674 ± 0.058

Q: Which abundance fitness does the source give for NRKASRNAYYFFVQEKIPVLRRRGLPVARVADAIPYCSSDWALLREEEKEKYAEMAREWRAAQGKDPGP [E19V] here?
A: -0.25 ± 0.06

Q: For NRKASRNAYYFFVQEKIPQLRRRGLPVARVADAIPYCSSDWALLREEEKEKYAEMAREWRAAQGKDPGP [E19Q], which abundance fitness is on record?
A: -0.623 ± 0.13

Q: With NRKASRNAYYFFVQEKIPLLRRRGLPVARVADAIPYCSSDWALLREEEKEKYAEMAREWRAAQGKDPGP [E19L] as the variant, how does the abundance fitness read?
A: -0.412 ± 0.067

Q: For NRKASRNAYYFFVQEKIPCLRRRGLPVARVADAIPYCSSDWALLREEEKEKYAEMAREWRAAQGKDPGP [E19C], which abundance fitness is on record?
A: -0.548 ± 0.15

Q: For NRKASRNAYYFFVQEKIPHLRRRGLPVARVADAIPYCSSDWALLREEEKEKYAEMAREWRAAQGKDPGP [E19H], which abundance fitness is on record?
A: -0.54 ± 0.14

Q: With NRKASRNAYYFFVQEKIPMLRRRGLPVARVADAIPYCSSDWALLREEEKEKYAEMAREWRAAQGKDPGP [E19M] as the variant, how does the abundance fitness read?
A: -0.303 ± 0.088

Q: For NRKASRNAYYFFVQEKIPPLRRRGLPVARVADAIPYCSSDWALLREEEKEKYAEMAREWRAAQGKDPGP [E19P], which abundance fitness is on record?
A: -0.733 ± 0.14

Q: With NRKASRNAYYFFVQEKPPELRRRGLPVARVADAIPYCSSDWALLREEEKEKYAEMAREWRAAQGKDPGP [I17P] as the variant, how does the abundance fitness read?
A: -0.755 ± 0.15

Q: Which abundance fitness does the source give for NRKASRNAYYFFVQEKMPELRRRGLPVARVADAIPYCSSDWALLREEEKEKYAEMAREWRAAQGKDPGP [I17M] here?
A: -0.241 ± 0.075

Q: Which abundance fitness does the source give for NRKASRNAYYFFVQEKLPELRRRGLPVARVADAIPYCSSDWALLREEEKEKYAEMAREWRAAQGKDPGP [I17L] here?
A: -0.18 ± 0.075

Q: Which abundance fitness does the source give for NRKASRNAYYFFVQEKGPELRRRGLPVARVADAIPYCSSDWALLREEEKEKYAEMAREWRAAQGKDPGP [I17G] here?
A: -0.503 ± 0.064

Q: With NRKASRNAYYFFVQEKHPELRRRGLPVARVADAIPYCSSDWALLREEEKEKYAEMAREWRAAQGKDPGP [I17H] as the variant, how does the abundance fitness read?
A: -0.832 ± 0.24

Q: Which abundance fitness does the source give for NRKASRNAYYFFVQEKYPELRRRGLPVARVADAIPYCSSDWALLREEEKEKYAEMAREWRAAQGKDPGP [I17Y] here?
A: -0.818 ± 0.21

Q: For NRKASRNAYYFFVQEKKPELRRRGLPVARVADAIPYCSSDWALLREEEKEKYAEMAREWRAAQGKDPGP [I17K], which abundance fitness is on record?
A: -0.687 ± 0.11

Q: With NRKASRNAYYFFVQEKFPELRRRGLPVARVADAIPYCSSDWALLREEEKEKYAEMAREWRAAQGKDPGP [I17F] as the variant, how does the abundance fitness read?
A: -0.323 ± 0.17

Q: With NRKASRNAYYFFVQEKCPELRRRGLPVARVADAIPYCSSDWALLREEEKEKYAEMAREWRAAQGKDPGP [I17C] as the variant, how does the abundance fitness read?
A: -0.771 ± 0.23

Q: With NRKASRNAYYFFVQEKWPELRRRGLPVARVADAIPYCSSDWALLREEEKEKYAEMAREWRAAQGKDPGP [I17W] as the variant, how does the abundance fitness read?
A: -0.264 ± 0.07

Q: With NRKASRNAYYFFVQEKVPELRRRGLPVARVADAIPYCSSDWALLREEEKEKYAEMAREWRAAQGKDPGP [I17V] as the variant, how does the abundance fitness read?
A: -0.166 ± 0.055

Q: With NRKASRNAYYFFVQEKRPELRRRGLPVARVADAIPYCSSDWALLREEEKEKYAEMAREWRAAQGKDPGP [I17R] as the variant, how does the abundance fitness read?
A: -0.501 ± 0.062

Q: For NRKASRNAYYFFVQEKQPELRRRGLPVARVADAIPYCSSDWALLREEEKEKYAEMAREWRAAQGKDPGP [I17Q], which abundance fitness is on record?
A: -0.961 ± 0.2

Q: For NRKASRNAYYFFVQEKNPELRRRGLPVARVADAIPYCSSDWALLREEEKEKYAEMAREWRAAQGKDPGP [I17N], which abundance fitness is on record?
A: -0.797 ± 0.21
